Experimental data from US20240228648A1.

Columns and labels:
[1] = biological target: recombinant biotinylated CD38-avi protein (extracellular domain of human CD38) (human) (UniProt P28907); assay: capture ELISA, antibody 0.781 nM, biotinylated CD38-avi 0.5 ug/ml
[2] = biological target: CD38 on the surface of Daudi cells (human) (UniProt P28907); assay: cell-based or functional assay
[3] = biological target: recombinant biotinylated CD38-avi protein (extracellular domain of human CD38) (human) (UniProt P28907); assay: competitive ELISA, no competitor: plate coated with Darzalex (2 µg/ml); biotinylated CD38 alone, captured CD38 detected with streptavidin-HRP; replicate 1
[4] = biological target: recombinant biotinylated CD38-avi protein (extracellular domain of human CD38) (human) (UniProt P28907); assay: competitive ELISA, no competitor: plate coated with Darzalex (2 µg/ml); biotinylated CD38 alone, captured CD38 detected with streptavidin-HRP; replicate 2
[5] = biological target: CD38 on the surface of Daudi cells (human) (UniProt P28907); assay: flow cytometry on Daudi cells, antibody 16.7 nM
[6] = biological target: recombinant biotinylated CD38-avi protein (extracellular domain of human CD38) (human) (UniProt P28907); assay: capture ELISA, antibody 0.195 nM, biotinylated CD38-avi 0.5 ug/ml
[7] = biological target: recombinant biotinylated CD38-avi protein (extracellular domain of human CD38) (human) (UniProt P28907); assay: competitive ELISA: plate coated with Darzalex (2 µg/ml); biotinylated CD38 (0.2 µg/ml) pre-incubated with soluble Darzalex (15 µg/ml), captured CD38 detected with streptavidin-HRP; replicate 1
[8] = biological target: recombinant biotinylated CD38-avi protein (extracellular domain of human CD38) (human) (UniProt P28907); assay: capture ELISA, antibody 50 nM, biotinylated CD38-avi 0.5 ug/ml
[9] = biological target: CD38 on the surface of Daudi cells (human) (UniProt P28907); assay: flow cytometry on Daudi cells, antibody 50 nM
[10] = biological target: CD38 on the surface of Daudi cells (human) (UniProt P28907); assay: flow cytometry on Daudi cells, antibody 5.56 nM
[11] = biological target: recombinant biotinylated CD38-avi protein (extracellular domain of human CD38) (human) (UniProt P28907); assay: capture ELISA: antibody captured by anti-human Fc, biotinylated CD38-avi 0.5 ug/ml, fit in GraphPad Prism
[12] = biological target: recombinant biotinylated CD38-avi protein (extracellular domain of human CD38) (human) (UniProt P28907); assay: capture ELISA, antibody 12.5 nM, biotinylated CD38-avi 0.5 ug/ml
[13] = biological target: CD38 on the surface of Daudi cells (human) (UniProt P28907); assay: flow cytometry on Daudi cells, anti-human IgG-Alexa647, fit in GraphPad Prism
[14] = biological target: CD38 on the surface of Daudi cells (human) (UniProt P28907); assay: flow cytometry on Daudi cells, antibody 1.85 nM
[15] = biological target: recombinant biotinylated CD38-avi protein (extracellular domain of human CD38) (human) (UniProt P28907); assay: capture ELISA, antibody 0.012 nM, biotinylated CD38-avi 0.5 ug/ml
[16] = biological target: recombinant biotinylated CD38-avi protein (extracellular domain of human CD38) (human) (UniProt P28907); assay: competitive ELISA: plate coated with Darzalex (2 µg/ml); biotinylated CD38 (0.2 µg/ml) pre-incubated with soluble Darzalex (15 µg/ml), captured CD38 detected with streptavidin-HRP; replicate 2
[17] = biological target: CD38 on the surface of Daudi cells (human) (UniProt P28907); assay: flow cytometry on Daudi cells, antibody 0.069 nM
[18] = biological target: recombinant biotinylated CD38-avi protein (extracellular domain of human CD38) (human) (UniProt P28907); assay: capture ELISA, antibody 0.049 nM, biotinylated CD38-avi 0.5 ug/ml
[19] = biological target: CD38 on the surface of Daudi cells (human) (UniProt P28907); assay: flow cytometry on Daudi cells, antibody 300 nM
[20] = biological target: recombinant biotinylated CD38-avi protein (extracellular domain of human CD38) (human) (UniProt P28907); assay: capture ELISA, antibody 0 nM (background), biotinylated CD38-avi 0.5 ug/ml
[21] = biological target: recombinant biotinylated CD38-avi protein (extracellular domain of human CD38) (human) (UniProt P28907); assay: capture ELISA, antibody 3.125 nM, biotinylated CD38-avi 0.5 ug/ml
[22] = biological target: CD38 on the surface of Daudi cells (human) (UniProt P28907); assay: flow cytometry on Daudi cells, antibody 1.617 nM (so in the source)
[23] = biological target: CD38 on the surface of Daudi cells (human) (UniProt P28907); assay: flow cytometry on Daudi cells, antibody 0.206 nM

**Q.** What does the source list for Darzalex (antibody)?
**A.** OD450 [1]: 0.145 OD450; ADCC activity (luciferase) on Daudi cells at 0.0015 nM antibody [2]: 0.12; ADCC activity (luciferase) on Daudi cells at 0.006 nM antibody [2]: 1.32; ADCC activity (luciferase) on Daudi cells at 0.0244 nM antibody [2]: 3.88; ADCC activity (luciferase) on Daudi cells at 0.098 nM antibody [2]: 14.7; ADCC activity (luciferase) on Daudi cells at 0.39 nM antibody [2]: 40.9; ADCC activity (luciferase) on Daudi cells at 1.56 nM antibody [2]: 57.2; ADCC activity (luciferase) on Daudi cells at 6.25 nM antibody [2]: 61; ADCC activity (luciferase) on Daudi cells at 25 nM antibody [2]: 64.1; ADCC activity (luciferase) on Daudi cells at 100 nM antibody [2]: 66.5; CDC: % live Daudi cells (P1) at 0.078 nM antibody [2]: 63.9%; CDC: % live Daudi cells (P1) at 0.156 nM antibody [2]: 75.2%; CDC: % live Daudi cells (P1) at 0.3125 nM antibody [2]: 70.6%; CDC: % live Daudi cells (P1) at 0.625 nM antibody [2]: 67.4%; CDC: % live Daudi cells (P1) at 1.25 nM antibody [2]: 55.6%; CDC: % live Daudi cells (P1) at 2.5 nM antibody [2]: 47.6%; CDC: % live Daudi cells (P1) at 5 nM antibody [2]: 40.9%; CDC: % live Daudi cells (P1) at 10 nM antibody [2]: 32.3%; OD450 [3]: 0.377; OD450 [4]: 0.385; Mean fluorescence [5]: 1.34e+06; OD450 [6]: 0.135 OD450; OD450 [7]: 0.168; OD450 [8]: 0.171 OD450; Mean fluorescence [9]: 1.31e+06; Mean fluorescence [10]: 1.09e+06; Kd [11]: 1.64 nM; OD450 [12]: 0.164 OD450; Kd [13]: 3.26 nM; Mean fluorescence [14]: 574000; OD450 [15]: 0.135 OD450; OD450 [16]: 0.176; Mean fluorescence [17]: 9320; OD450 [18]: 0.147 OD450; Mean fluorescence [19]: 1.29e+06; OD450 [20]: 0.143 OD450; OD450 [21]: 0.172 OD450; Mean fluorescence [22]: 158000; Mean fluorescence [23]: 46700
